Substitutions are numbered along the chain they refer to. Where no end group is shown, it is not given here. The star is where a group is joined. FITC = O=C1OC2(c3ccc(O)cc3Oc3cc(O)ccc32)c2ccc(NC(=S)*)cc21 Bounds are passed on as bounds.

Data set [1] has as its target T1, MotA, full length (wild type) (bacteriophage T4, UniProt P22915 1-211).
T1 sequence (looked up): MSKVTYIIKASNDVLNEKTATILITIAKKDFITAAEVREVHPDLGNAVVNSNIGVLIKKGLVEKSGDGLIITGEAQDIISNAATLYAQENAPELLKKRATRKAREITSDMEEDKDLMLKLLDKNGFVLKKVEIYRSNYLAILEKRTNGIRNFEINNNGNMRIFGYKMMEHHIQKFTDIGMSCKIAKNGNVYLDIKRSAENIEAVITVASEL
In words: NMR titration.

Another data set addresses T2, MotA D43K, full length (bacteriophage T4, UniProt P22915 1-211, D43K).
T2 sequence (looked up): T1 sequence (looked up) with D43K
Description: fluorescence polarisation. In general terms: Fluorescence polarisation rises when a labelled molecule tumbles more slowly, as on binding a larger partner.

The next data set concerns the target T3, MotA D67K, full length (bacteriophage T4, UniProt P22915 1-211, D67K).
T3 sequence (looked up): T1 sequence (looked up) with D67K
Description: fluorescence polarisation.

Another data set deals with T4, MotA Q76R, full length (bacteriophage T4, UniProt P22915 1-211, Q76R).
T4 sequence (looked up): T1 sequence (looked up) with Q76R
Description: fluorescence polarisation.

A further data set has as its target T5, MotA K59E, full length (bacteriophage T4, UniProt P22915 1-211, K59E).
T5 sequence (looked up): T1 sequence (looked up) with K59E
In words: fluorescence polarisation.

The next data set concerns the target T6, MotA K28E, full length (bacteriophage T4, UniProt P22915 1-211, K28E).
T6 sequence (looked up): T1 sequence (looked up) with K28E
Description: fluorescence polarisation.

A further data set has as its target T7, MotA K3E, full length (bacteriophage T4, UniProt P22915 1-211, K3E).
T7 sequence (looked up): T1 sequence (looked up) with K3E
In words: fluorescence polarisation.

In data set [2] the target is T1, MotA, full length (wild type). In words: fluorescence polarisation.
In the next data set the target is T8, MotA S80R, full length (bacteriophage T4, UniProt P22915 1-211, S80R).
T8 sequence (looked up): T1 sequence (looked up) with S80R
In words: fluorescence polarisation.

The target in another data set is T9, AsiA (bacteriophage T4, UniProt P32267 1-90).
T9 sequence (looked up): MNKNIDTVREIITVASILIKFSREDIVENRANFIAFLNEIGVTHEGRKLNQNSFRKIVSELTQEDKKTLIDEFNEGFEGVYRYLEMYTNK
Description: NMR titration.

A further data set addresses T10, MotA wild type (bacteriophage T4, UniProt P22915 1-211).
T10 sequence: T1 sequence (looked up)
Description: EMSA.

B1: AsiA/σ4 complex (preformed binary complex of AsiA and σ^70 region 4, residues 533 to 613) (complex, bacteriophage T4 | E. coli)
chain 1: T9 sequence (looked up)
chain 2: DSATTESLRAATHDVLAGLTAREAKVLRMRFGIDMNTDYTLEEVGKQFDVTRERIRQIEAKALRKLRHPSRSEVLRSFLDD
For B1, the binding result in [1] is listed as “binds”.

Broadly, the Kd is a measure of binding affinity in units of concentration. Higher therefore signals weaker binding. On to {FITC}-PSRSEVLRSFLDD (peptide, UniProt P00579 601-613, looked up) [fluorescein-tagged σ4-H5 peptide (σ^70 residues 601-613)], for which the Kd is 12 ± 1 µM with MotA D43K, full length; 24.3 ± 0.1 µM with MotA D67K, full length; 39.1 ± 5 µM with MotA Q76R, full length; 10 ± 1 µM with MotA K59E, full length; over 300 µM in the data set with MotA K28E, full length; over 300 µM with MotA K3E, full length. The Kd in data set [2] worked out at 15.9 ± 1.3 µM; with MotA S80R, full length, 44.7 ± 5 µM.

B2: σ4 (σ^70 region 4, residues 533 to 613) (domain or fragment, E. coli, UniProt P00579 533-613, looked up)
chain: B1 chain 2
With B2, the binding result (in data set [1]; in the data set with AsiA) was “binds” each time.

B3: 21 bp MotA box DNA (dsDNA)
DNA 1: GAATTATTTGCTTTAGATTAC
DNA 2: GTAATCTAAAGCAAATAATTC
Molecule B3 displayed a Kd with MotA wild type of about 600 nM.
